Experimental findings from US20060062783A1 are described below.

The test concerns the target T1, Rat PTH (1-84) (rat).
T1 sequence (peptide): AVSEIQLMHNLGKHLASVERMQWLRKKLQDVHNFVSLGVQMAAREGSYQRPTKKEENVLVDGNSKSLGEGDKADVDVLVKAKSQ
Description: ELISA on coated peptide; B cell supernatant.

B1: anti-PTH mAb 168 (antibody, human IgG2, V domains shown)
VH: EVQLVQSGAEVKKPGESLKISCKGSRYIFTNYWIGWVRQMPGKGLEWMGIIYPGDSDTRYSPSFQGQVTISADMSISTAYLQWSSLKASDTAMYYCARQGDYVWGSFDSWGQGTLVTVSS
VL: DIVMTQTPLSLSVTPGQPASISCKSSQSLLDSDGKTYLYWYLQKPGQPPQLLIYEVSNRFSGVPDRFSGSGSGTDFTLKISRVEAEDVGVYYCMQSIQLWTFGQGTKVEIK
Molecule B1 displayed an OD of 0.19 OD450.
